Experimental data taken from patent US20140274782A1, “AFFINITY REAGENTS AND METHODS FOR DETECTION, PURIFICATION, AND PROTEOMIC ANALYSIS OF METHYLATED PROTEINS” (The Board of Trustees of the Leland Stanford Junior …, priority 2013, published 2014).

B1: TOP1 (protein, UniProt P11387 2-765, looked up)
DNA topoisomerase 1: SGDHLHNDSQIEADFRLNDSHKHKDKHKDREHRHKEHKKEKDREKSKHSNSEHKDSEKKHKEKEKTKHKDGSSEKHKDKHKDRDKEKRKEEKVRASGDAKIKKEKENGFSSPPQIKDEPEDDGYFVPPKEDIKPLKRPRDEDDADYKPKKIKTEDTKKEKKRKLEEEEDGKLKKPKNKDKDKKVPEPDNKKKKPKKEEEQKWKWWEEERYPEGIKWKFLEHKGPVFAPPYEPLPENVKFYYDGKVMKLSPKAEEVATFFAKMLDHEYTTKEIFRKNFFKDWRKEMTNEEKNIITNLSKCDFTQMSQYFKAQTEARKQMSKEEKLKIKEENEKLLKEYGFCIMDNHKERIANFKIEPPGLFRGRGNHPKMGMLKRRIMPEDIIINCSKDAKVPSPPPGHKWKEVRHDNKVTWLVSWTENIQGSIKYIMLNPSSRIKGEKDWQKYETARRLKKCVDKIRNQYREDWKSKEMKVRQRAVALYFIDKLALRAGNEKEEGETADTVGCCSLRVEHINLHPELDGQEYVVEFDFLGKDSIRYYNKVPVEKRVFKNLQLFMENKQPEDDLFDRLNTGILNKHLQDLMEGLTAKVFRTYNASITLQQQLKELTAPDENIPAKILSYNRANRAVAILCNHQRAPPKTFEKSMMNLQTKIDAKKEQLADARRDLKSAKADAKVMKDAKTKKVVESKKKAVQRLEEQLMKLEVQATDREENKQIALGTSKLNYLDPRITVAWCKKWGVPIEKIYNKTQREKFAWAIDMADEDYEF
B2: FUS (protein, UniProt P35637 1-526, looked up)
RNA-binding protein FUS: MASNDYTQQATQSYGAYPTQPGQGYSQQSSQPYGQQSYSGYSQSTDTSGYGQSSYSSYGQSQNTGYGTQSTPQGYGSTGGYGSSQSSQSSYGQQSSYPGYGQQPAPSSTSGSYGSSSQSSSYGQPQSGSYSQQPSYGGQQQSYGQQQSYNPPQGYGQQNQYNSSSGGGGGGGGGGNYGQDQSSMSSGGGSGGGYGNQDQSGGGGSGGYGQQDRGGRGRGGSGGGGGGGGGGYNRSSGGYEPRGRGGGRGGRGGMGGSDRGGFNKFGGPRDQGSRHDSEQDNSDNNTIFVQGLGENVTIESVADYFKQIGIIKTNKKTGQPMINLYTDRETGKLKGEATVSFDDPPSAKAAIDWFDGKEFSGNPIKVSFATRRADFNRGGGNGRGGRGRGGPMGRGGYGGGGSGGGGRGGFPSGGGGGGGQQRAGDWKCPNPTCENMNFSWRNECNQCKAPKPDGPGGGPGGSHMGGNYGDDRRGGRGGYDRGGYRGRGGDRGGFRGGRGGGDRGGFGPGKMDSRGEHRQDRRERPY
B3: GIGYF2 (protein, UniProt Q6Y7W6 2-1299, looked up)
GRB10-interacting GYF protein …: AAETQTLNFGPEWLRALSSGGSITSPPLSPALPKYKLADYRYGREEMLALFLKDNKIPSDLLDKEFLPILQEEPLPPLALVPFTEEEQRNFSMSVNSAAVLRLTGRGGGGTVVGAPRGRSSSRGRGRGRGECGFYQRSFDEVEGVFGRGGGREMHRSQSWEERGDRRFEKPGRKDVGRPNFEEGGPTSVGRKHEFIRSESENWRIFREEQNGEDEDGGWRLAGSRRDGERWRPHSPDGPRSAGWREHMERRRRFEFDFRDRDDERGYRRVRSGSGSIDDDRDSLPEWCLEDAEEEMGTFDSSGAFLSLKKVQKEPIPEEQEMDFRPVDEGEECSDSEGSHNEEAKEPDKTNKKEGEKTDRVGVEASEETPQTSSSSARPGTPSDHQSQEASQFERKDEPKTEQTEKAEEETRMENSLPAKVPSRGDEMVADVQQPLSQIPSDTASPLLILPPPVPNPSPTLRPVETPVVGAPGMGSVSTEPDDEEGLKHLEQQAEKMVAYLQDSALDDERLASKLQEHRAKGVSIPLMHEAMQKWYYKDPQGEIQGPFNNQEMAEWFQAGYFTMSLLVKRACDESFQPLGDIMKMWGRVPFSPGPAPPPHMGELDQERLTRQQELTALYQMQHLQYQQFLIQQQYAQVLAQQQKAALSSQQQQQLALLLQQFQTLKMRISDQNIIPSVTRSVSVPDTGSIWELQPTASQPTVWEGGSVWDLPLDTTTPGPALEQLQQLEKAKAAKLEQERREAEMRAKREEEERKRQEELRRQQEEILRRQQEEERKRREEEELARRKQEEALRRQREQEIALRRQREEEERQQQEEALRRLEERRREEEERRKQEELLRKQEEEAAKWAREEEEAQRRLEENRLRMEEEAARLRHEEEERKRKELEVQRQKELMRQRQQQQEALRRLQQQQQQQQLAQMKLPSSSTWGQQSNTTACQSQATLSLAEIQKLEEERERQLREEQRRQQRELMKALQQQQQQQQQKLSGWGNVSKPSGTTKSLLEIQQEEARQMQKQQQQQQQHQQPNRARNNTHSNLHTSIGNSVWGSINTGPPNQWASDLVSSIWSNADTKNSNMGFWDDAVKEVGPRNSTNKNKNNASLSKSVGVSNRQNKKVEEEEKLLKLFQGVNKAQDGFTQWCEQMLHALNTANNLDVPTFVSFLKEVESPYEVHDYIRAYLGDTSEAKEFAKQFLERRAKQKANQQRQQQQLPQQQQQQPPQQPPQQPQQQDSVWGMNHSTLHSVFQTNQSNNQQSNFEAVQSGKKKKKQKMVRADPSLLGFSVNASSERLNMGEIETLDDY
B4: GNB1L (protein, UniProt Q9BYB4 1-327, looked up)
Guanine nucleotide-binding …: MTAPCPPPPPDPQFVLRGTQSPVHALHFCEGAQAQGRPLLFSGSQSGLVHIWSLQTRRAVTTLDGHGGQCVTWLQTLPQGRQLLSQGRDLKLCLWDLAEGRSAVVDSVCLESVGFCRSSILAGGQPRWTLAVPGRGSDEVQILEMPSKTSVCALKPKADAKLGMPMCLRLWQADCSSRPLLLAGYEDGSVVLWDVSEQKVCSRIACHEEPVMDLDFDSQKARGISGSAGKALAVWSLDWQQALQVRGTHELTNPGIAEVTIRPDRKILATAGWDHRIRVFHWRTMQPLAVLAFHSAAVQCVAFTADGLLAAGSKDQRISLWSLYPRA

system: 3×MBT domain of L3MBTL1; assay: Triple SILAC pull-down, 3xMBT/3xMBTD355N ratio (cytoplasmic, nuclear and chromatin fractions of 293T cells); format: binding, human; settings: SILAC ratio, pull-down 3xMBT vs 3xMBTD355N; experiment with UNC0638 in heavy SILAC media;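 note: proteins quantified with MaxQuant, requiring at least two unique peptides and quantification in both label directions, normalized to the mean of proteins from a digested loading control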

In order of rising “3xMBT/D355N UNC Heavy” value:
1. B2  2.17 log base 2
2. B4  2.24 log base 2
3. B3  2.62 log base 2
4. B1  3.47 log base 2

same assay, conditions: SILAC ratio, pull-down 3xMBT vs 3xMBTD355N; experiment with UNC0638 in light SILAC media

In order of falling “3xMBT/D355N UNC Light” value:
1. B1  3.87 log base 2
2. B3  3.04 log base 2
3. B4  2.60 log base 2
4. B2  2.10 log base 2

target: T1, G9a and GLP (Homo sapiens, UniProt Q96KQ7+Q9H9B1); assay: Triple SILAC pull-down after UNC0638 treatment of 293T cells, DMSO/UNC0638 ratio of protein captured by 3×MBT; format: cell-based; set-up: endogenous in cells; host or cells: HEK 293T; settings: SILAC ratio DMSO/UNC0638 of protein pulled down with 3xMBT; UNC0638 in heavy SILAC media;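 note: mass spectrometry (Q-Exactive) SILAC quantitation, DMSO/UNC0638 ratio computed after subtracting 3×MBTD355N mutant pull-down background, only proteins with at least twofold 3×MBT over mutant signal considered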
T1 sequence (Q96KQ7 2-1210 limits assumed): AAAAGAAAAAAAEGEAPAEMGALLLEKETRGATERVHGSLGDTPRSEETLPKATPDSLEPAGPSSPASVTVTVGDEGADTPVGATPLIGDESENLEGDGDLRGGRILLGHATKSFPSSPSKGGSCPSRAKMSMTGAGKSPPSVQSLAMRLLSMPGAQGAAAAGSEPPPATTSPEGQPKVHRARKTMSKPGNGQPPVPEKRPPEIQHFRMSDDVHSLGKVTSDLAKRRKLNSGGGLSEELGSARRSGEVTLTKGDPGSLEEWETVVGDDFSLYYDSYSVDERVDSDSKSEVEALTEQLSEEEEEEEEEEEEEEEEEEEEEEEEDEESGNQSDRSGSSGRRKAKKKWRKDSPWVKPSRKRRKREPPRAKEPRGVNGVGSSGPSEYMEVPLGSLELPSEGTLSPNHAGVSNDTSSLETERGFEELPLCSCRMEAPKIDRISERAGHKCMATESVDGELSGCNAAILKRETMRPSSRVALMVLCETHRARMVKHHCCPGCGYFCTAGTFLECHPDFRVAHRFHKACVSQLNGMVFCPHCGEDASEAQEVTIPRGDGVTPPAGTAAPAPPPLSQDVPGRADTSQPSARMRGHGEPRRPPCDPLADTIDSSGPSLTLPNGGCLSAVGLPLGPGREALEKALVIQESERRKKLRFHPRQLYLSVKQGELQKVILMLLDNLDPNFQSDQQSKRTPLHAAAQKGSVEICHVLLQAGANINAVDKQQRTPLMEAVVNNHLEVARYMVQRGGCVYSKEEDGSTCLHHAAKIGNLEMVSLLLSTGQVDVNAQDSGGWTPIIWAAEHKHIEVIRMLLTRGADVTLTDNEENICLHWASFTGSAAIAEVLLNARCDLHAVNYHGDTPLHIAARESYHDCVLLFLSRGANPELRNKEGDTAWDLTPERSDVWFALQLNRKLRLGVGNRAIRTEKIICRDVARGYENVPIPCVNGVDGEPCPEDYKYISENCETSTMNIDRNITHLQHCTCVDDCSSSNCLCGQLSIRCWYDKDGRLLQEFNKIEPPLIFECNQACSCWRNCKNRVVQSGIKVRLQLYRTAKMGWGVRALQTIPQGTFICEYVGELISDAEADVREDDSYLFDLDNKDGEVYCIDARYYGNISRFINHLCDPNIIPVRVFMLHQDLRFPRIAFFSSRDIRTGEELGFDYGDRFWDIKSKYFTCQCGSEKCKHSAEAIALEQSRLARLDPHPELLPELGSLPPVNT
T1 sequence (Q9H9B1 2-1298 limits assumed): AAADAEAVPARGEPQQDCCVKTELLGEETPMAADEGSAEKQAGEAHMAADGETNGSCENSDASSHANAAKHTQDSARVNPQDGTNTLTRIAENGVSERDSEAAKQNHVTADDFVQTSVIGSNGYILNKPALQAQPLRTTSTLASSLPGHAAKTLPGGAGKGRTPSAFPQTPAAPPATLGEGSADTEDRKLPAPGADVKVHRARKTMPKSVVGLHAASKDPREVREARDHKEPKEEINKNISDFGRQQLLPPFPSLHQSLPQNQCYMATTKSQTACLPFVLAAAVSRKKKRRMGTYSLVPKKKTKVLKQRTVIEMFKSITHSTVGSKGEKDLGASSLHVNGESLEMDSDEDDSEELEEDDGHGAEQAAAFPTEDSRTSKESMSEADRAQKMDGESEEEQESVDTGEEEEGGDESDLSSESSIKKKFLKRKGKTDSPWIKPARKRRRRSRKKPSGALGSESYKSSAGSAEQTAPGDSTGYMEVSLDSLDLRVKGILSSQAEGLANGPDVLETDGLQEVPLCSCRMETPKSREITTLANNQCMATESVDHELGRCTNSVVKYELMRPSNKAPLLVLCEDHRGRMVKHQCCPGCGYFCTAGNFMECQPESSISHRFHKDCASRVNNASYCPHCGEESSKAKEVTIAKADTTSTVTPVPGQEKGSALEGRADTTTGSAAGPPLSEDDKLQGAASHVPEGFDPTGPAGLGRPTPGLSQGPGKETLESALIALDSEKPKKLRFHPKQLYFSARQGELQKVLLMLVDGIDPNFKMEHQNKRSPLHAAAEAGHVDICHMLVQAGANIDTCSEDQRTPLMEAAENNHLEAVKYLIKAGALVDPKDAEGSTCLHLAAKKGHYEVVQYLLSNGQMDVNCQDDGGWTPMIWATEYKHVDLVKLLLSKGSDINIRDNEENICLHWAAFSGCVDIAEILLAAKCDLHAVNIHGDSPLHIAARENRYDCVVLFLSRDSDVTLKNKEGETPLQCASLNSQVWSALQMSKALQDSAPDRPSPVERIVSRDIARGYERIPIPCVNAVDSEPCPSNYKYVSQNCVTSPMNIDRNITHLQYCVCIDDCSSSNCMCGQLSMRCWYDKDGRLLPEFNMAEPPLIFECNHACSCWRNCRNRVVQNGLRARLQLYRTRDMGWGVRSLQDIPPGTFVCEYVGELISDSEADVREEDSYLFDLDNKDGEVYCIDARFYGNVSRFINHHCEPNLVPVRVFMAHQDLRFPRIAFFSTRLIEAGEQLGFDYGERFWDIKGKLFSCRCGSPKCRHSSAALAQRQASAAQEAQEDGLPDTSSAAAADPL

In order of falling “Relative to UNC0638 UNC Heavy” value:
1. B3  0.34 log base 2
2. B4  0.25 log base 2
3. B1  0.16 log base 2
4. B2  0.05 log base 2

same assay, conditions: SILAC ratio DMSO/UNC0638 of protein pulled down with 3xMBT; UNC0638 in light SILAC media

In order of rising “Relative to UNC0638 UNC Light” value:
1. B3  0.05 log base 2
2. B4  0.12 log base 2
3. B1  0.22 log base 2
4. B2  0.34 log base 2

same assay, conditions: average of UNC Light and UNC Heavy experiments

In order of falling “Relative to UNC0638 Average” value:
1. B1  0.19 log base 2
2. B2  0.19 log base 2
3. B3  0.19 log base 2
4. B4  0.19 log base 2
